The experiment relates to MBP expression. The experiment in a line: HD-DoE 8-factor model (stage 4), optimized for maximum expression of MBP. It is filed as cell-based, human. Conditions: model optimized for MBP at 274; FIG. 6.

B1: NT-3: neurotrophin-3, a Trk C pathway agonist (protein, UniProt P20783 139-257, looked up)
Neurotrophin-3: YAEHKSHRGEYSVCDSESLWVTDKSSAIDIRGHQVTVLGEIKTGNSPVKQYFYETRCKEARPVKNGCRGIDDKHWNSQCKTSQTYVRALTSENNKLVGWRWIRIDTSCVCALSRKIGRT
As for B1, the “factor contribution, positive impact on MBP expression” value came out at 12.1.
